This note sets out measurements from patent publication US20110207796A1, “ALPHA-SYNUCLEIN KINASE” (Elan Pharma International Limited, priority 2008, published 2011).

This experiment concerns synuclein phosphorylation. The experiment can be described thus: overexpression of PLK family members with WT-synuclein in HEK-293 cells, phospho-synuclein ELISA. It counts as cell-based, human. Conditions: for Proportion of total synuclein that is phoshorylated at ser-129: 48 hours post-transfection, with WT-synuclein; for Fold Change in Percent Synuclein Phosphorylation: relative to endogenous kinase (2.0%). As for the experimental part:
HEK-293 naïve cells were transfected with an expression vector encoding PLK1, PLK2, PLK3, or PLK4 under the control of a CMV promoter, or empty vector, together with an expression vector encoding WT-synuclein. All vectors had the sequence coding for the protein of interest. Transfection was accomplished using Lipofectamine 2000 (Invitrogen, Carlsbad, Calif.) with 0.08 μg vector. Cells were washed and harvested 48 hours post-transfection. A Micro BCA (Pierce) total protein assay and total synuclein and phospho-synuclein ELISAs were performed on each plate of treated cells.

B1: Over-Expressed PLK4 (protein, UniProt O00444 1-970, looked up)
Serine/threonine-protein …: MATCIGEKIEDFKVGNLLGKGSFAGVYRAESIHTGLEVAIKMIDKKAMYKAGMVQRVQNEVKIHCQLKHPSILELYNYFEDSNYVYLVLEMCHNGEMNRYLKNRVKPFSENEARHFMHQIITGMLYLHSHGILHRDLTLSNLLLTRNMNIKIADFGLATQLKMPHEKHYTLCGTPNYISPEIATRSAHGLESDVWSLGCMFYTLLIGRPPFDTDTVKNTLNKVVLADYEMPSFLSIEAKDLIHQLLRRNPADRLSLSSVLDHPFMSRNSSTKSKDLGTVEDSIDSGHATISTAITASSSTSISGSLFDKRRLLIGQPLPNKMTVFPKNKSSTDFSSSGDGNSFYTQWGNQETSNSGRGRVIQDAEERPHSRYLRRAYSSDRSGTSNSQSQAKTYTMERCHSAEMLSVSKRSGGGENEERYSPTDNNANIFNFFKEKTSSSSGSFERPDNNQALSNHLCPGKTPFPFADPTPQTETVQQWFGNLQINAHLRKTTEYDSISPNRDFQGHPDLQKDTSKNAWTDTKVKKNSDASDNAHSVKQQNTMKYMTALHSKPEIIQQECVFGSDPLSEQSKTRGMEPPWGYQNRTLRSITSPLVAHRLKPIRQKTKKAVVSILDSEEVCVELVKEYASQEYVKEVLQISSDGNTITIYYPNGGRGFPLADRPPSPTDNISRYSFDNLPEKYWRKYQYASRFVQLVRSKSPKITYFTRYAKCILMENSPGADFEVWFYDGVKIHKTEDFIQVIEKTGKSYTLKSESEVNSLKEEIKMYMDHANEGHRICLALESIISEEERKTRSAPFFPIIIGRKPGSTSSPKALSPPPSVDSNYPTRERASFNRMVMHSAASPTQAPILNPSMVTNEGLGLTTTASGTDISSNSLKDCLPKSAQLLKSVFVKNVGWATQLTSGAVWVQFNDGSQLVVQAGVSSISYTSPNGQTTRYGENEKLPDYIKQKLQCLSSILLMFSNPTPNFH
As to B1, the “Proportion of total synuclein that is phoshorylated at ser-129” value (“Proportion” for short) was found to be 1.9% and the “Fold Change in Percent Synuclein Phosphorylation” value is given as 1.0.

B2: Over-Expressed PLK2 (protein, UniProt Q9NYY3 1-685, looked up)
Serine/threonine-protein …: MELLRTITYQPAASTKMCEQALGKGCGADSKKKRPPQPPEESQPPQSQAQVPPAAPHHHHHHSHSGPEISRIIVDPTTGKRYCRGKVLGKGGFAKCYEMTDLTNNKVYAAKIIPHSRVAKPHQREKIDKEIELHRILHHKHVVQFYHYFEDKENIYILLEYCSRRSMAHILKARKVLTEPEVRYYLRQIVSGLKYLHEQEILHRDLKLGNFFINEAMELKVGDFGLAARLEPLEHRRRTICGTPNYLSPEVLNKQGHGCESDIWALGCVMYTMLLGRPPFETTNLKETYRCIREARYTMPSSLLAPAKHLIASMLSKNPEDRPSLDDIIRHDFFLQGFTPDRLSSSCCHTVPDFHLSSPAKNFFKKAAAALFGGKKDKARYIDTHNRVSKEDEDIYKLRHDLKKTSITQQPSKHRTDEELQPPTTTVARSGTPAVENKQQIGDAIRMIVRGTLGSCSSSSECLEDSTMGSVADTVARVLRGCLENMPEADCIPKEQLSTSFQWVTKWVDYSNKYGFGYQLSDHTVGVLFNNGAHMSLLPDKKTVHYYAELGQCSVFPATDAPEQFISQVTVLKYFSHYMEENLMDGGDLPSVTDIRRPRLYLLQWLKSDKALMMLFNDGTFQVNFYHDHTKIIICSQNEEYLLTYINEDRISTTFRLTTLLMSGCSSELKNRMEYALNMLLQRCN
Consider B2, for which the “Proportion” value was found to be 42.3% and the “Fold Change in Percent Synuclein Phosphorylation” value is 21.2.

B3: Over-Expressed PLK3 (protein, UniProt Q9H4B4 1-646, looked up)
Serine/threonine-protein …: MEPAAGFLSPRPFQRAAAAPAPPAGPGPPPSALRGPELEMLAGLPTSDPGRLITDPRSGRTYLKGRLLGKGGFARCYEATDTETGSAYAVKVIPQSRVAKPHQREKILNEIELHRDLQHRHIVRFSHHFEDADNIYIFLELCSRKSLAHIWKARHTLLEPEVRYYLRQILSGLKYLHQRGILHRDLKLGNFFITENMELKVGDFGLAARLEPPEQRKKTICGTPNYVAPEVLLRQGHGPEADVWSLGCVMYTLLCGSPPFETADLKETYRCIKQVHYTLPASLSLPARQLLAAILRASPRDRPSIDQILRHDFFTKGYTPDRLPISSCVTVPDLTPPNPARSLFAKVTKSLFGRKKKSKNHAQERDEVSGLVSGLMRTSVGHQDARPEAPAASGPAPVSLVETAPEDSSPRGTLASSGDGFEEGLTVATVVESALCALRNCIAFMPPAEQNPAPLAQPEPLVWVSKWVDYSNKFGFGYQLSSRRVAVLFNDGTHMALSANRKTVHYNPTSTKHFSFSVGAVPRALQPQLGILRYFASYMEQHLMKGGDLPSVEEVEVPAPPLLLQWVKTDQALLMLFSDGTVQVNFYGDHTKLILSGWEPLLVTFVARNRSACTYLASHLRQLGCSPDLRQRLRYALRLLRDRSPA
For the molecule B3, the “Proportion” value is listed as 79.2% and the “Fold Change in Percent Synuclein Phosphorylation” value is reported as 39.6.
